Source: patent US20240384250A1, “FIBROBLAST GROWTH FACTOR 23 MODULATING COMPOUNDS” (THE UAB RESEARCH FOUNDATION, priority 2021, published 2024)
Entries after “also recorded” stand apart in the source; their conditions may differ. Blank lines part the entries; values can stand above or below the molecule they belong to.

Tests used:
[1] = test system: intact hearts isolated from adult mice; assay: Isolated heart contractility; set-up: species or system mouse; conditions: FGF23 9 ng/ml, 30 minutes
Procedure: Isolated heart contractility was performed as described previously. 14,70,71 Briefly, 2- to 3-month-old male CD-1 mice were anesthetized using 3% isoflurane and hearts were carefully removed and placed into oxygenated Ringer's solution composed of 140 mM NaCl, 2.0 mM KCl, 2.5 mM CaCl2), 1.0 mM MgSO4, 1.5 mM K2HPO4, 10 mM N-2-hydroxyethylpiperazine-N-2-ethanesulfonic acid, and 10 mM glucose (pH 7.4). Atria were then removed, and the intact ventricular muscle was attached to small metallic clips hung vertically from a force transducer (ADInstruments) between bipolar platinum-stimulating electrodes and suspended in 25-ml glass tissue chambers (ADInstruments). Heart muscles were perfused with Ringer's solution continuously bubbled with 100% O2 at room temperature. Hearts were stretched to the length of maximum force development and paced at 1 Hz (5 ms pulse duration, 30-60 V; Grass Instruments SD9 Square Pulse Stimulator). After a stable baseline was obtained, hearts were treated with either vehicle or FGF23 (9 ng/ml) alone or in combination with heparin (0.06 USP/ml) while contractile force output was monitored for 30 minutes. Contractile data were recorded and analyzed with LabChart 8 software (ADInstruments). Waveform changes were analyzed for peak contraction force (in millinewtons) and maximum slope of force development and presented as fold change from baseline values.

[2] = test system: FGF1, FGF2, FGF7, FGF19, FGF21; assay: Plate-based binding assay, other FGF isoforms coated, FLAG-sKL detected with anti-FLAG HRP; set-up: species or system human; conditions: 10 ng FGF coated, 40 ng FLAG-sKL
Procedure: Proteins were coated on 96-well plates (MaxiSorp; 439454, Thermo Fisher Scientific), and proteins were added to wells in 100 μl of enzyme-linked immunosorbent assay (ELISA) coating buffer (E107, Bethyl Laboratories) with a lid placed overtop and incubated at 4° C. overnight. Plates were washed 5× with 350 μl of assay buffer (50 mM Tris [pH 7.4], 200 mM NaCl, 0.01% Tween 20) on a 50 TS microplate washer (BioTek). Plates were blocked for 1 hour in 200 μl of assay buffer with 0.5% BSA. Plates were washed as before, and proteins were incubated on plates in 100 μl of assay buffer with 0.5% BSA. Proteins or heparin was incubated in orders described in the respective figure legends. Assays using FLAG-tag-based detection were incubated with anti-FLAG coupled to HRP at 1:20,000, and assays using Fc detection were incubated with anti-human Fc coupled to HRP at 1:10,000. […] Reactions were stopped with ELISA stop solution (E115, Bethyl Laboratories) and analyzed using the Synergy HI plate reader (BioTek) at 450 nm wavelength. […] As a control to remove background absorbance values, wells were coated with an equal amount of BSA to match the amount of protein coated in experimental wells and treated the same as experimental wells. […]

FGF23 binding to FGFR3c = target: T1, FGF23 binding to FGFR3c (Homo sapiens, UniProt P22607+Q9GZV9); assay: Plate-based binding, FGF23 coated, then sKL, heparin or PBS, then Fc-FGFR; conditions: with sKL, with heparin 0.4 USP, or alone
T1 construct: Fc-coupled FGFR ectodomains were immobilized on protein A/G beads; purchased R&D Systems 2604FG025/CF or 2629FG025/CF; 766FR050
T1 sequence (Q9GZV9 25-251): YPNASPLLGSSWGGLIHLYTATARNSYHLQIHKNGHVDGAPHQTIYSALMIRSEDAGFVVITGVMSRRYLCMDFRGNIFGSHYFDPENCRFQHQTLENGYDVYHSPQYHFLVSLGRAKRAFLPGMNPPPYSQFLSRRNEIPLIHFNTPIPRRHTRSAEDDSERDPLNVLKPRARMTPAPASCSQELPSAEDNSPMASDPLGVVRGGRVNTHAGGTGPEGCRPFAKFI
T1 sequence (P22607 23-375 limits assumed): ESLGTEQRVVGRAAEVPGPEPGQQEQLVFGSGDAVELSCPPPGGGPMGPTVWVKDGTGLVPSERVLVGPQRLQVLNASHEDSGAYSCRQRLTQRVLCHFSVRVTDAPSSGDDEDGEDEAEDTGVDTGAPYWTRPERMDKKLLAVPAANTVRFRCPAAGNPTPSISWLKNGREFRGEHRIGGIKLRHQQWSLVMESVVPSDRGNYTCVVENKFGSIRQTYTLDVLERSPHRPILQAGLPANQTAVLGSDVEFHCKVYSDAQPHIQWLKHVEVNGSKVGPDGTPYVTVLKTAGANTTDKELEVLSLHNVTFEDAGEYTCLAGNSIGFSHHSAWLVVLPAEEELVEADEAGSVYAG
Procedure: Proteins were coated on 96-well plates (MaxiSorp; 439454, Thermo Fisher Scientific), and proteins were added to wells in 100 μl of enzyme-linked immunosorbent assay (ELISA) coating buffer (E107, Bethyl Laboratories) with a lid placed overtop and incubated at 4° C. overnight. Plates were washed 5× with 350 μl of assay buffer (50 mM Tris [pH 7.4], 200 mM NaCl, 0.01% Tween 20) on a 50 TS microplate washer (BioTek). Plates were blocked for 1 hour in 200 μl of assay buffer with 0.5% BSA. Plates were washed as before, and proteins were incubated on plates in 100 μl of assay buffer with 0.5% BSA. Proteins or heparin was incubated in orders described in the respective figure legends. Assays using FLAG-tag-based detection were incubated with anti-FLAG coupled to HRP at 1:20,000, and assays using Fc detection were incubated with anti-human Fc coupled to HRP at 1:10,000. Plates were washed as above, and 100 μl of 3,3′,5,5′-tetramethylbenzidine (TMB) substrate (E102, Bethyl Laboratories) was added for 15 to 20 minutes until positive wells developed a dark blue color. Reactions were stopped with ELISA stop solution (E115, Bethyl Laboratories) and analyzed using the Synergy HI plate reader (BioTek) at 450 nm wavelength. […] As a control to remove background absorbance values, wells were coated with an equal amount of BSA to match the amount of protein coated in experimental wells and treated the same as experimental wells. To study the effects of sKL on the binding between paracrine FGFs and FGFRs, plates were run as above except coated with paracrine FGFs. Fc-FGFR1 was preincubated with sKL or vehicle for 60 minutes, and then the combination was added to wells and the assay was run as before.

[3] = test system: FGF19 binding to FGFR isoforms 1c, 2c, 3c, 4; assay: Pull-down and plate binding of FGF19 to FGFR isoforms with sKL or heparin; set-up: species or system human
Sequence of FGF19 binding to FGFR isoforms 1c, 2c, 3c, 4 (O95750 25-216): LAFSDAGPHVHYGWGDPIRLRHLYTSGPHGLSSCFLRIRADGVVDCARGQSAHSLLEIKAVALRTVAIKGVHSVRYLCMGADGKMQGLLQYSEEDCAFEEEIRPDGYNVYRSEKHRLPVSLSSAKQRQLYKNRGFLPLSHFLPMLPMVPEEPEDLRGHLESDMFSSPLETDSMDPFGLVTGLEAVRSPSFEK
Procedure: To study the interaction between Fc-tagged FGFR isoforms (Fc-FGFR), FGF isoforms, and sKL, immunoprecipitation studies were conducted. Protein A beads (6501, BioVision) and protein G beads (6511, BioVision) were used at 25 μl of a 50% stock slurry per sample in a total bead volume of 50 μl. Beads were washed 5× in activity buffer (50 mM Tris [pH 7.4], 200 mM NaCl, 0.01% Tween 20). Bead spin-down assays were all performed for 2 minutes at 5000 g. Beads were resuspended in 1 ml of activity buffer in a 1.5-ml snap cap tube. One microgram of Fc-FGFR1 to 4 was incubated with the beads for 1 hour on a bead rotator. Control samples were incubated with 2 μg of anti-FGF antibody instead of Fc-FGFR. […] Samples were analyzed using SDS-PAGE and Western blotting.
Proteins were coated on 96-well plates (MaxiSorp; 439454, Thermo Fisher Scientific), and proteins were added to wells in 100 μl of enzyme-linked immunosorbent assay (ELISA) coating buffer (E107, Bethyl Laboratories) with a lid placed overtop and incubated at 4° C. overnight. […] Reactions were stopped with ELISA stop solution (E115, Bethyl Laboratories) and analyzed using the Synergy HI plate reader (BioTek) at 450 nm wavelength. […] As a control to remove background absorbance values, wells were coated with an equal amount of BSA to match the amount of protein coated in experimental wells and treated the same as experimental wells. […]

B1: FGF23: recombinant fibroblast growth factor 23 protein from R&D Systems (protein)
chain: YPDTSPLLGSNWGSLTHLYTATARTSYHLQIHRDGHVDGTPHQTIYSALMITSEDAGSVVITGAMTRRFLCMDLHGNIFGSLHFSPENCKFRQWTLENGYDVYLSQKHHYLVSLGRAKRIFQPGTNPPPFSQFLARRNEVPLLHFYTVRPRRHTRSAEDPPERDPLNVLKPRPRATPVPVSCSRELPSAEEGGPAASDPLGVLRRGRGDARGGAGGADRCRPFPRFV
- peak contraction force [1]: increased cardiac contractile force

- binding of FLAG-sKL to other coated FGF isoforms [2]: not observed
B2: sKL: recombinant soluble α-klotho ectodomain, mouse aa 35-982 and human aa 34-981, FLAG- or Strep/His-tagged, purified from HEK293 cells (protein)
chain: EPGDGAQTWARFSRPPAPEAAGLFQGTFPDGFLWAVGSAAYQTEGGWQQHGKGASIWDTFTHHPLAPPGDSRNASLPLGAPSPLQPATGDVASDSYNNVFRDTEALRELGVTHYRFSISWARVLPNGSAGVPNREGLRYYRRLLERLRELGVQPVVTLYHWDLPQRLQDAYGGWANRALADHFRDYAELCFRHFGGQVKYWITIDNPYVVAWHGYATGRLAPGIRGSPRLGYLVAHNLLLAHAKVWHLYNTSFRPTQGGQVSIALSSHWINPRRMTDHSIKECQKSLDFVLGWFAKPVFIDGDYPESMKNNLSSILPDFTESEKKFIKGTADFFALCFGPTLSFQLLDPHMKFRQLESPNLRQLLSWIDLEFNHPQIFIVENGWFVSGTTKRDDAKYMYYLKKFIMETLKAIKLDGVDVIGYTAWSLMDGFEWHRGYSIRRGLFYVDFLSQDKMLLPKSSALFYQKLIEKNGFPPLPENQPLEGTFPCDFAWGVVDNYIQVDTTLSQFTDLNVYLWDVHHSKRLIKVDGVVTKKRKSYCVDFAAIQPQIALLQEMHVTHFRFSLDWALILPLGNQSQVNHTILQYYRCMASELVRVNITPVVALWQPMAPNQGLPRLLARQGAWENPYTALAFAEYARLCFQELGHHVKLWITMNEPYTRNMTYSAGHNLLKAHALAWHVYNEKFRHAQNGKISIALQADWIEPACPFSQKDKEVAERVLEFDIGWLAEPIFGSGDYPWVMRDWLNQRNNFLLPYFTEDEKKLIQGTFDFLALSHYTTILVDSEKEDPIKYNDYLEVQEMTDITWLNSPSQVAVVPWGLRKVLNWLKFKYGDLPMYIISNGIDDGLHAEDDQLRVYYMQNYINEALKAHILDGINLCGYFAYSFNDRTAPRFGLYRYAADQFEPKASMKHYRKIIDSNGFPGPETLERFCPEEFTVCTECSFFHTRKS
modifications: left off: small tags and cut ends
notes: recombinant soluble α-klotho ectodomain, mouse aa 35-982 and human aa 34-981, FLAG- or Strep/His-tagged, purified from HEK293 cells
- binding of coated FGF23 to Fc-FGFR3c (FGF23 binding to FGFR3c): lower affinity; also recorded: weaker binding
- binding of FGF19 to any of the FGFR isoforms [3]: did not mediate binding; also recorded: did not lead to complex formation; also recorded: did not bind any of the FGFR isoforms
